# Test results reported in PMC4066673 (Biochemistry, 2012).
# B1: His6-tagged (Δ1-39)hTHEM4 (enzyme, human, UniProt Q5T1C6 40-240, looked up)
# chain: EVILKDCSVPNPSWNKDLRLLFDQFMKKCEDGSWKRLPSYKRTPTEWIQDFKTHFLDPKLMKEEQMSQAQLFTRSFDDGLGFEYVMFYNDIEKRMVCLFQGGPYLEGPPGFIHGGAIATMIDATVGMCAMMAGGIVMTANLNINYKRPIPLCSVVMINSQLDKVEGRKFFVSCNVQSVDEKTLYSEATSLFIKLNPAKSLT
# Biological target: the molecule itself
# Test: SEC-MALS
protein,measurement,value
B1,stoichiometry N,2
